Results as given in patent publication US20210230599, “STEM-LOOP COMPOSITIONS AND METHODS FOR INHIBITING INTERLEUKIN-8” (VITRISA THERAPEUTICS, INC., published 2021).
Residue numbers refer to the chain shown, from its start.

B1: Aptamer 146 (ssRNA)
RNA: GAUGACGGUAGAUUAUGGGCAGUGUGACCGCAUC
modifications: 2'-F G, 2'-OMe A/C/U, 5' C6NH2, 3' idT
B2: Aptamer 151 (ssRNA)
RNA: GGCGACGGUAGAUUAUGGGAAGUGUGACCGCGCC
modifications: 2'-F G, 2'-OMe A/C/U, 5' C6NH2, 3' idT
B3: Aptamer 142 (ssRNA)
RNA: B1 RNA with A15U, U16C, C20U
modifications: 2'-F G, 2'-OMe A/C/U, 5' C6NH2, 3' idT
B4: Aptamer 150 (ssRNA)
RNA: B1 RNA with C20A
modifications: 2'-F G, 2'-OMe A/C/U, 5' C6NH2, 3' idT
B5: Aptamer 152 (ssRNA)
RNA: GCGACGGUAGAUUAUGGGAAGUGUGACCGCGC
modifications: 2'-F G, 2'-OMe A/C/U, 5' C6NH2, 3' idT
B6: Aptamer 14 (ssRNA)
RNA: UGCGGCCUCCGUUGACUGUUGUAAUGCCGGGACAGU
modifications: 2'-F G, 2'-OMe A/C/U, 5' C6NH2, 3' idT
B7: Aptamer 23 (ssRNA)
RNA: UUAGCCCUGCCAUUGGGGCAUACUUUGGCCGCACU
modifications: 2'-F G, 2'-OMe A/C/U, 5' C6NH2, 3' idT
B8: Aptamer 44 (ssRNA)
RNA: GCGACGUAGAUUACGGGUAGAGUGACGCGC
modifications: 2'-F G, 2'-OMe A/C/U, 5' C6NH2, 3' idT
B9: Aptamer 171 (ssRNA)
RNA: CGGUGGGAAAUGUGCGAUGGGUUGCCG
modifications: 2'-F G, 2'-OMe A/C/U, 5' C6NH2, 3' idT
B10: Aptamer 172 (ssRNA)
RNA: CGGUGGGAAAUGUGGGAUGGGUUGCCG
modifications: 2'-F G, 2'-OMe A/C/U, 5' C6NH2, 3' idT
B11: Aptamer 178 (ssRNA)
RNA: CGGUGGGAAAUGUGAGGUGGGUUGCCG
modifications: 2'-F G, 2'-OMe A/C/U, 5' C6NH2, 3' idT
B12: Aptamer 180 (ssRNA)
RNA: CGGUGGGAAAUGUGAGAGGGGUUGCCG
modifications: 2'-F G, 2'-OMe A/C/U, 5' C6NH2, 3' idT
B13: Aptamer 168 (ssRNA)
RNA: CGGUGGGAAAUGUCAGAUGGGUUGCCG
modifications: 2'-F G, 2'-OMe A/C/U, 5' C6NH2, 3' idT
B14: Aptamer 174 (ssRNA)
RNA: CGGUGGGAAAUGUGACAUGGGUUGCCG
modifications: 2'-F G, 2'-OMe A/C/U, 5' C6NH2, 3' idT
B15: Aptamer 147 (ssRNA)
RNA: B2 RNA with A20C
modifications: 2'-F G, 2'-OMe A/C/U, 5' C6NH2, 3' idT
B16: Aptamer 269 (ssRNA)
RNA: B2 RNA with A20C
modifications: 2'-OMe A/C/U, 2'-OMe G in stems S1, S2 and loop L2, 2'-F at other G, 5' C6NH2, 3' idT
B17: Aptamer 169 (ssRNA)
RNA: CGGUGGGAAAUGUAAGAUGGGUUGCCG
modifications: 2'-F G; 2'-OMe A,C,U; 5' C6NH2; 3' idT
B18: Aptamer 170 (ssRNA)
RNA: CGGUGGGAAAUGUUAGAUGGGUUGCCG
modifications: 2'-F G; 2'-OMe A,C,U; 5' C6NH2; 3' idT
B19: Aptamer 179 (ssRNA)
RNA: CGGUGGGAAAUGUGAGUUGGGUUGCCG
modifications: 2'-F G; 2'-OMe A,C,U; 5' C6NH2; 3' idT
B20: Aptamer 173 (ssRNA)
RNA: CGGUGGGAAAUGUGUGAUGGGUUGCCG
modifications: 2'-F G; 2'-OMe A,C,U; 5' C6NH2; 3' idT
B21: Aptamer 176 (ssRNA)
RNA: CGGUGGGAAAUGUGAUAUGGGUUGCCG
modifications: 2'-F G; 2'-OMe A,C,U; 5' C6NH2; 3' idT
B22: Aptamer 175 (ssRNA)
RNA: CGGUGGGAAAUGUGAAAUGGGUUGCCG
modifications: 2'-F G; 2'-OMe A,C,U; 5' C6NH2; 3' idT
B23: Aptamer 18 (ssRNA)
RNA: UGGAUGACAUUCGGGGGCACCAAUCAUCGUCUGCU
modifications: 2'-F G, 2'-OMe A/C/U, 5' C6NH2, 3' idT
B24: Aptamer 15 (ssRNA)
RNA: UCAGUUGCGGCCCCUGAUACCGAUUUGCCGCCCGGU
modifications: 2'-F G, 2'-OMe A/C/U, 5' C6NH2, 3' idT

These binders were tested against T1, Interleukin-8 (IL8, CXCL8), C-terminal His-tagged (Homo sapiens, UniProt P10145 SEQ:1-72) (assay: competition; competition TR-FRET). Conditions: tags: C-terminal 6xHis (Sino Biological).
Description: (§1) Activity of each of these variants were tested using a time resolved competition TR-FRET assay in which the labeled parent Aptamer 3 was competed with increasing concentrations of unlabeled variants for binding to IL8 (FIG. 14). Briefly, 2-fold dilutions of thermally equilibrated aptamers were made in TR-FRET Buffer (50 mM MOPS, pH 7.4, 125 mM NaCl, 5 mM KCl, 50 μM CHAPS, 0.1 mg/mL BSA, 1 mM CaCl₂, and 1 mM MgCl₂). 5 μL of aptamer or control solution was added to 5 μl mix of 10 nM C-terminal His-tagged-IL8, 60 nM ALEXA FLUOR® 647-labeled Aptamer, and 5 nM anti-His-Eu (Perkin Elmer) in a black wall low volume 384 well plate (Greiner). For control, 5 μl of 1000-fold excess of unlabeled parent aptamer or 5 μl TR-FRET buffer alone was added to the mix of ALEXA FLUOR® 647-labeled aptamer, His-IL8, and anti-His-Eu. The plate was covered with a plate seal and subsequently incubated in the dark for 1 hour at room temperature. The plate was read on a Biotek CYTATION™ 5 plate reader. Samples were excited at 330 nm and fluorescent values were collected at 665 nm. Data analysis was performed by subtracting the background value and plotting as percent inhibition, normalized to baseline in the absence of competitor. The values were fit by [Inhibitor] vs. response—Variable slope (four parameters) using GraphPad Prism Version 7.0 and then normalized to aptamer control to obtain an IC₅₀ relative to parent aptamer. Data is presented as log values of relative IC₅₀.
Variants of Aptamers 94, 99, and 100 were synthesized with an optimized stem S1 and G18 was also replaced with a Sp3 spacer to see if further improvements could be made to these molecules (Table 30 and FIG. 20).

Row | Binder | binding result
1 | B1 | binds
2 | B2 | binds
3 | B3 | binds
4 | B4 | binds
5 | B5 | binds

The binders below were run against T1, Interleukin-8 (IL8, CXCL8), C-terminal … (assay: TR-FRET; bead flow 13 nM). Conditions: tags: C-terminal 6xHis (Sino Biological); label: Alexa Fluor 647.
Description: (§2) Aptamers were synthesized and labeled with ALEXA FLUOR® 647, and binding to IL8 was quantified by Time-Resolved Fluorescence Resonance Energy Transfer (TR-FRET). Briefly, 2-fold dilutions of thermally equilibrated aptamers were made in TR-FRET Buffer (50 mM MOPS, pH 7.4, 125 mM NaCl, 5 mM KCl, 50 μM CHAPS, 0.1 mg/mL BSA, 1 mM CaCl₂ and 1 mM MgCl₂). […] of aptamer or control solution was added to 10 μL of 15 nM C-His-tagged-IL8 (Sino Biological) in a black wall half-area plate (Corning). In the same plate, 10 μl of aptamer solution was added to 10 μl of TR-FRET buffer alone to use for background subtraction. 10 μl of 15 nM anti-His-Eu (Perkin Elmer) was added to each well, the plate was covered with a plate seal and subsequently incubated in the dark for 1 hour at room temperature. The plate was read on a Biotek CYTATION™ 5 plate reader. Samples were excited at 330 nm and fluorescent values were collected at 665 nm. […] Apparent Kd values obtained for the fits are calculated as the concentration of half-maximal binding and shown in Table 10, and fit curves as FIG. 6. […] It is also possible that differences may arise due to TR-FRET being a homogenous solution binding assay, while bead binding has immobilized ligand and is non-homogenous, so bound aptamers may dissociate during analysis resulting in higher calculated Kd values.

Row | Binder | Kd [nM]
6 | B6 | 6
7 | B7 | 12

What follows are binders tested against T1, Interleukin-8 (IL8, CXCL8), C-terminal … (assay: competition; competition TR-FRET; S2 shortened). Conditions: tags: C-terminal 6xHis (Sino Biological).
Description: To better understand the sequence requirements and to confirm the stem structures of members of the Aptamer 3 family as determined from sequence covariation analysis from both the primary and secondary (degenerate) selections, a series of variants which included mutations and deletions to the predicted stems were synthesized and screened (Table 24). Activity of each of these variants were tested using a time resolved competition TR-FRET assay in which the labeled parent Aptamer 3 was competed with increasing concentrations of unlabeled variants for binding to IL8 (FIG. 14). Briefly, 2-fold dilutions of thermally equilibrated aptamers were made in TR-FRET Buffer (50 mM MOPS, pH 7.4, 125 mM NaCl, 5 mM KCl, 50 μM CHAPS, 0.1 mg/mL BSA, 1 mM CaCl₂, and 1 mM MgCl₂). 5 μL of aptamer or control solution was added to 5 μl mix of 10 nM C-terminal His-tagged-IL8, 60 nM ALEXA FLUOR® 647-labeled Aptamer, and 5 nM anti-His-Eu (Perkin Elmer) in a black wall low volume 384 well plate (Greiner). For control, 5 μl of 1000-fold excess of unlabeled parent aptamer or 5 μl TR-FRET buffer alone was added to the mix of ALEXA FLUOR® 647-labeled aptamer, His-IL8, and anti-His-Eu. The plate was covered with a plate seal and subsequently incubated in the dark for 1 hour at room temperature. The plate was read on a Biotek CYTATION™ 5 plate reader. […]

Row | Binder | binding signal [fold worse than Aptamer 3]
8 | B8 | > 10

Each binder was assayed against T1, Interleukin-8 (IL8, CXCL8), C-terminal … (assay: competition; competition TR-FRET; L2 mutant). Conditions: tags: C-terminal 6xHis (Sino Biological).
Description: as §1
(§3) Like L1, most of L2 was also found to be 100% conserved in the degenerate selection, except residue U20, which was ˜92% conserved (FIG. 31). To test sequence requirements of L2, variants of Aptamer 32 were made, where each position of L2 was individually replaced with the other 3 bases and tested for binding in the competition TR-FRET assay.

Row | Binder | binding signal [fold worse than Aptamer 8]
9 | B9 | > 10
10 | B10 | > 10
11 | B11 | > 10
12 | B12 | > 10
13 | B13 | > 10
14 | B14 | > 10

The binders below were run against T1, Interleukin-8 (IL8, CXCL8), C-terminal … (assay: TR-FRET, 500 pM IL8, protein-limited; estimated about 20 pM). Conditions: tags: C-terminal 6xHis (Sino Biological); label: Alexa Fluor 647; stem-loop.
Description: Under these assay conditions, the ability to measure the affinity accurately is limited by the input IL8 protein concentration, and the apparent Kd under these protein-limiting conditions was determined to be 8 nM.

Row | Binder | Kd [nM]
15 | B15 | 0.11
16 | B16 | 0.126

These binders were tested against T1, Interleukin-8 (IL8, CXCL8), C-terminal … (assay: competition; competition TR-FRET). Conditions: tags: C-terminal His (Sino Biological); stem-loop.
Description: To better understand the sequence requirements and to confirm the stem structures of members of the Aptamer 3 family as determined from sequence covariation analysis from both the primary and secondary (degenerate) selections, a series of variants which included mutations and deletions to the predicted stems were synthesized and screened (Table 24). […] Briefly, 2-fold dilutions of thermally equilibrated aptamers were made in TR-FRET Buffer (50 mM MOPS, pH 7.4, 125 mM NaCl, 5 mM KCl, 50 μM CHAPS, 0.1 mg/mL BSA, 1 mM CaCl₂, and 1 mM MgCl₂). 5 μL of aptamer or control solution was added to 5 μl mix of 10 nM C-terminal His-tagged-IL8, 60 nM ALEXA FLUOR® 647-labeled Aptamer, and 5 nM anti-His-Eu (Perkin Elmer) in a black wall low volume 384 well plate (Greiner). For control, 5 μl of 1000-fold excess of unlabeled parent aptamer or 5 μl TR-FRET buffer alone was added to the mix of ALEXA FLUOR® 647-labeled aptamer, His-IL8, and anti-His-Eu. The plate was covered with a plate seal and subsequently incubated in the dark for 1 hour at room temperature. The plate was read on a Biotek CYTATION™ 5 plate reader. Samples were excited at 330 nm and fluorescent values were collected at 665 nm. Data analysis was performed by subtracting the background value and plotting as percent inhibition, normalized to baseline in the absence of competitor. The values were fit by [Inhibitor] vs. response—Variable slope (four parameters) using GraphPad Prism Version 7.0 and then normalized to aptamer control to obtain an IC₅₀ relative to parent aptamer. Data is presented as log values of relative IC₅₀.
as §3

Row | Binder | binding signal [fold worse than Aptamer 8]
17 | B17 | > 10
18 | B18 | > 10
19 | B19 | > 10
20 | B20 | > 10
21 | B21 | > 10
22 | B22 | > 10

Each binder was assayed against T1, Interleukin-8 (IL8, CXCL8), C-terminal … (assay: TR-FRET). Conditions: tags: C-terminal 6xHis (Sino Biological); label: Alexa Fluor 647.
Description: as §2

Row | Binder | Kd [nM]
23 | B23 | 13
24 | B24 | 22
